# Tests used:
# [1] = biological target: His-tagged cytoplasmic fragment (CF) of the E. coli aspartate chemoreceptor, 4Q (E. coli); test: co-sedimentation
# [2] = biological target: all active complexes of the different constructs assembled with vesicles, PEG, or Ni(II); test: co-sedimentation
Binder,percent bound [1] [%],sedimentation relative to the optimal NiCl2 sample [1] [%],"sedimented (bound) concentration, maximum at 4 h [1] [µM]",stoichiometry N (CheW per 6 CF) [2]
CheA (enzyme) MSMDISDFYQTFFDEADELLADMEQHLLVLQPEAPDAEQLNAIFRAAHSIKGGAGTFGFSVLQETTHLMENLLDEARRGEMQLNTDIINLFLETKDIMQEQLDAYKQSQEPDAASFDYICQALRQLALEAKGETPSAVTRLSVVAKSEPQDEQSRSQSPRRIILSRLKAGEVDLLEEELGHLTTLTDVVKGADSLSAILPGDIAEDDITAVLCFVIEADQITFETVEVSPKISTPPVLKLAAEQAPTGRVEREKTTRSNESTSIRVAVEKVDQLINLVGELVITQSMLAQRSSELDPVNHGDLITSMGQLQRNARDLQESVMSIRMMPMEYVFSRYPRLVRDLAGKLGKQVELTLVGSSTELDKSLIERIIDPLTHLVRNSLDHGIELPEKRLAAGKNSVGNLILSAEHQGGNICIEVTDDGAGLNRERILAKAASQGLTVSENMSDDEVAMLIFAPGFSTAEQVTDVSGRGVGMDVVKRNIQKMGGHVEIQSKQGTGTTIRILLPLTLAILDGMSVRVADEVFILPLNAVMESLQPREADLHPLAGGERVLEVRGEYLPIVELWKVFNVAGAKTEATQGIVVILQSGGRRYALLVDQLIGQHQVVVKNLESNYRKVPGISAATILGDGSVALIVDVSALQAINREQRMANTAA,< 15,50,5.8,–
CheW (natural protein) MTGMTNVTKLASEPSGQEFLVFTLGDEEYGIDILKVQEIRGYDQVTRIANTPAFIKGVTNLRGVIVPIVDLRIKFSQVDVDYNDNTVVIVLNLGQRVVGIVVDGVSDVLSLTAEQIRPAPEFAVTLSTEYLTGLGALGDRMLILVNIEKLLNSEEMALLDSAASEVA,< 15,50,13.6,2.1 to 3

# From publication PMC5678893
